Assay results published in patent EP1892250A2.

Columns and labels:
[1] = biological target: α6β1 integrin on human cells (1064SK fibroblasts, endothelial cells) (human) (UniProt P23229); assay: cell-based or functional assay
[2] = biological target: αvβ3 integrin on human cells (human) (UniProt P06756); assay: cell-based or functional assay
Chain of αvβ3 integrin on human cells (human) (P06756 31-1048, chain 1 of 2): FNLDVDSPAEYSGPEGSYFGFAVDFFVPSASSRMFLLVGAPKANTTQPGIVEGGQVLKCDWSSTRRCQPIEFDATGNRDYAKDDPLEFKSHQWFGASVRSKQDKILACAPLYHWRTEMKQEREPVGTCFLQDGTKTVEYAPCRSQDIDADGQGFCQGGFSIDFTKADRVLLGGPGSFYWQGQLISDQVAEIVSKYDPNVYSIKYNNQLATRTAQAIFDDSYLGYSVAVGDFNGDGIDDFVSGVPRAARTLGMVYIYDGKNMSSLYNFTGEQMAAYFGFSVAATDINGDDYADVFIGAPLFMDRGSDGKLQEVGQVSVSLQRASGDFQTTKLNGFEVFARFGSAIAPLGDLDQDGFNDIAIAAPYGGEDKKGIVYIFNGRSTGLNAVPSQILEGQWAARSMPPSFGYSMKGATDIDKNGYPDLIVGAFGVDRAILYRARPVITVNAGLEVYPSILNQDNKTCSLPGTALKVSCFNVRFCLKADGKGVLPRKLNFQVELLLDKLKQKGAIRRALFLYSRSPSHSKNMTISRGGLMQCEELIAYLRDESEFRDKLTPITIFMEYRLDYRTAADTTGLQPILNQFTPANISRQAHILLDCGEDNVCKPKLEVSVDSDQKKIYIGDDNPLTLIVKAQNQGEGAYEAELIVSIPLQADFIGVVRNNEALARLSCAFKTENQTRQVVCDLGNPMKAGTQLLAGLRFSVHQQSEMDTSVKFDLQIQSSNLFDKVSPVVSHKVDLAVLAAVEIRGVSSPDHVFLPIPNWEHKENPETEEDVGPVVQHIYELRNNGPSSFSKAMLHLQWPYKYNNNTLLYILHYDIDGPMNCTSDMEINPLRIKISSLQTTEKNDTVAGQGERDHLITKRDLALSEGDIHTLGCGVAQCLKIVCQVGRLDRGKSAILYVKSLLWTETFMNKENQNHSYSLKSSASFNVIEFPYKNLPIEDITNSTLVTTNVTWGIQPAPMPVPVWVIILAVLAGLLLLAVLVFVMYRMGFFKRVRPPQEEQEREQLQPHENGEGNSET
Chain of αvβ3 integrin on human cells (human) (P05106 27-788, chain 2 of 2, further chain): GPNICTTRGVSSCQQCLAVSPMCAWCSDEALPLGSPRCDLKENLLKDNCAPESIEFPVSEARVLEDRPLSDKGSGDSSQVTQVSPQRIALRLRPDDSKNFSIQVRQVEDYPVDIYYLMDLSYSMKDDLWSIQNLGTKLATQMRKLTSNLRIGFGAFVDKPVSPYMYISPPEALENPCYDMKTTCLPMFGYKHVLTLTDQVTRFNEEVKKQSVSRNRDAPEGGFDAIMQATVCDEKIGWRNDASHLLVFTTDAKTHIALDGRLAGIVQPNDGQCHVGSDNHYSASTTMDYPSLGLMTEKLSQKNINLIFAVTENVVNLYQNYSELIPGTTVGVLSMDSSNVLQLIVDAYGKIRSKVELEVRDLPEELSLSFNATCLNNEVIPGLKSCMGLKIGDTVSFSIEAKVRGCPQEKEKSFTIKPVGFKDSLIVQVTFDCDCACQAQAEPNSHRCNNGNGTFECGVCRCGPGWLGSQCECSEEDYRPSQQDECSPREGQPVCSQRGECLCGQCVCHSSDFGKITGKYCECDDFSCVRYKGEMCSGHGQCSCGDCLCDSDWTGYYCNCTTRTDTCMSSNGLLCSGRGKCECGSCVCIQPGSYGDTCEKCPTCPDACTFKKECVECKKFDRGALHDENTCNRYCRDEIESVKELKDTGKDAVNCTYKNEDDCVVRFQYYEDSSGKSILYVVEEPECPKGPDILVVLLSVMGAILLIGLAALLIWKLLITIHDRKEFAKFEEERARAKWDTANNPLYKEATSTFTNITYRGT

Chain of α6β1 integrin on human cells (1064SK fibroblasts, endothelial cells) (human) (P23229 24-1130, chain 1 of 2): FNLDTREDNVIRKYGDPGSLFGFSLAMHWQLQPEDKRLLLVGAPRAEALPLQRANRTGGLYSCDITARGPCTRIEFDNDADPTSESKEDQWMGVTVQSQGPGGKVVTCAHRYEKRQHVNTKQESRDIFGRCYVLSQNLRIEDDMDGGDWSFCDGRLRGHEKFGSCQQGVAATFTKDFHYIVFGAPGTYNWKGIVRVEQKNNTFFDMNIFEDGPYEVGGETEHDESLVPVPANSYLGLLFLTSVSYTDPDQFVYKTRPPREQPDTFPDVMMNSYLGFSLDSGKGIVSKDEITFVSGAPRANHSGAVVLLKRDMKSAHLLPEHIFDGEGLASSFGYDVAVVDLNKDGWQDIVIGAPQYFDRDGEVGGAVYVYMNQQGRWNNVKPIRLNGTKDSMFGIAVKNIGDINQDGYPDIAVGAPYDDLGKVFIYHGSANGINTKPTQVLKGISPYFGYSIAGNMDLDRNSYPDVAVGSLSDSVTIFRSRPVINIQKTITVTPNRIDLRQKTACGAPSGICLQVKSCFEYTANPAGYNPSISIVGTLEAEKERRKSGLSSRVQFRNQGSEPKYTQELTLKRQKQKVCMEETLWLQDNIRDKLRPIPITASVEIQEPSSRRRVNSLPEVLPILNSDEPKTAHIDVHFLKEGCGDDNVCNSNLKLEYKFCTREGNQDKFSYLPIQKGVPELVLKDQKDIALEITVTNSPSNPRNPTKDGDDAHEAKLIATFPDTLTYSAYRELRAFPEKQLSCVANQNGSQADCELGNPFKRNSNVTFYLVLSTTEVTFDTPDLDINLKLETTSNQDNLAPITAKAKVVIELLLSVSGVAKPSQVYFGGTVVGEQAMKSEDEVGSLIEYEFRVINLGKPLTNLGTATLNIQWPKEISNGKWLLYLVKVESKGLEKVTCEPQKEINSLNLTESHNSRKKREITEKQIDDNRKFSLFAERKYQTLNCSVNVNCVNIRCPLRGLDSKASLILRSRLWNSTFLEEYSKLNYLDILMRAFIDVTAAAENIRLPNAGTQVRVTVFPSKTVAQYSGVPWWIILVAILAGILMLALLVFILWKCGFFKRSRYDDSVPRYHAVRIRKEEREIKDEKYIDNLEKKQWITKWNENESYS
Chain of α6β1 integrin on human cells (1064SK fibroblasts, endothelial cells) (human) (P05556 21-798, chain 2 of 2, further chain): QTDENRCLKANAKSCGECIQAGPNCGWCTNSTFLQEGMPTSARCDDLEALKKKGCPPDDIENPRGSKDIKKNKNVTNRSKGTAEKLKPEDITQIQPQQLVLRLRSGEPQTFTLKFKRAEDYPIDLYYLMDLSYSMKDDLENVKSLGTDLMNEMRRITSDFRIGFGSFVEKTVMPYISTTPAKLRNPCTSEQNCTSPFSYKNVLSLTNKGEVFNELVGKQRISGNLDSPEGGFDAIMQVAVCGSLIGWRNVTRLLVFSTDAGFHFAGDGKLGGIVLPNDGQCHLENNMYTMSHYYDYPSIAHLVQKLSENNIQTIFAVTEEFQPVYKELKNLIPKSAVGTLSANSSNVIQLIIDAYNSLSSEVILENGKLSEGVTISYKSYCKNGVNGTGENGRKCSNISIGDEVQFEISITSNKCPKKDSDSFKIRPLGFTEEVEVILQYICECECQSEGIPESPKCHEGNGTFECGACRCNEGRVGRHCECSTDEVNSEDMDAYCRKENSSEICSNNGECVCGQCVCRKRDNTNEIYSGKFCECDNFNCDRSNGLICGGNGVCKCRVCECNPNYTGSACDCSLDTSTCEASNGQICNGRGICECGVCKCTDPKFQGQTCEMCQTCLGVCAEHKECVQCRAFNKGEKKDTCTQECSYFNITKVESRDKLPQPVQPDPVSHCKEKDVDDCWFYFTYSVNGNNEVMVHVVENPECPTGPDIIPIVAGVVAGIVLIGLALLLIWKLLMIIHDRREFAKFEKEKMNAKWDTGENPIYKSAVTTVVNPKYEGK

| Substance | 1064SK fibroblast adhesion to laminin (5 µg/ml), with anti-α6 antibody 20 µg/ml (A620) [1] [A620] | 1064SK fibroblast adhesion to laminin (5 µg/ml), without anti-α6 antibody (A620) [1] [A620] | inhibition of 1064SK fibroblast adhesion to laminin by anti-α6 antibody [1] [%] | HUVE cell adhesion to wild-type Cyr61 (5 µg/ml), relative binding capacity, pre-incubation: Anti-αvβ3 antibody (LM609, 40 µg/ml) [2] [%] | HUVE cell adhesion to wild-type Cyr61 (5 µg/ml), relative binding capacity, pre-incubation: EDTA (2.5 mM) [2] [%] | HUVE cell adhesion to wild-type Cyr61 (5 µg/ml), relative binding capacity, pre-incubation: None [2] [%] | HUVE cell adhesion to wild-type Cyr61 (5 µg/ml), relative binding capacity, pre-incubation: RGD peptide (1 mM) [2] [%] | 1064SK fibroblast adhesion to Cyr61 (2 µg/ml), with anti-α6 antibody 20 µg/ml (A620) [1] [A620] | 1064SK fibroblast adhesion to Cyr61 (2 µg/ml), with anti-β1 antibody JB1A 50 µg/ml (A620) [1] [A620] | 1064SK fibroblast adhesion to Cyr61 (2 µg/ml), without anti-α6 antibody (A620) [1] [A620] | 1064SK fibroblast adhesion to Cyr61 (2 µg/ml), without anti-β1 antibody JB1A (A620) [1] [A620] | 1064SK fibroblast adhesion to Cyr61 (A620), antibody: None (control) [1] [A620] | 1064SK fibroblast adhesion to Cyr61 (A620), antibody: anti-α1 (40 µg/ml) [1] [A620] | 1064SK fibroblast adhesion to Cyr61 (A620), antibody: anti-α1 + anti-α2 + anti-α3 (40 µg/ml each) [1] [A620] | 1064SK fibroblast adhesion to Cyr61 (A620), antibody: anti-α2 (40 µg/ml) [1] [A620] | 1064SK fibroblast adhesion to Cyr61 (A620), antibody: anti-α3 (40 µg/ml) [1] [A620] | 1064SK fibroblast adhesion to Cyr61 (A620), antibody: anti-α4 (40 µg/ml) [1] [A620] | inhibition of 1064SK fibroblast adhesion to Cyr61 by anti-α6 antibody [1] [%] | inhibition of 1064SK fibroblast adhesion to Cyr61 by anti-β1 antibody JB1A [1] [%] | inhibition of 1064SK fibroblast adhesion to wild-type Cyr61 by anti-α6 antibody (20 µg/ml) [1] [%] |
| --- | --- | --- | --- | --- | --- | --- | --- | --- | --- | --- | --- | --- | --- | --- | --- | --- | --- | --- | --- | --- |
| mouse laminin (ligand) | 0.48 | 0.62 | 22 | – | – | – | – | – | – | – | – | – | – | – | – | – | – | – | – | – |
| human Cyr61 (from UniProt O00622 25-381) (ligand) | – | – | – | 42 | 22 | 100 | 50 | 0.08 | 0.14 | 0.53 | 0.53 | 0.58 | 0.54 | 0.56 | 0.6 | 0.55 | 0.56 | > 80 | 75 | 78 |
